Laboratory results as given in patent publication US9289444B2, “Composition for promoting hematogenesis containing quercetin 3-O-β-(2″-galloyl)-rhamnopyranoside as active ingredient” (Chungbuk National University Industry Academic Cooperation …, priority 2011, dated 2016).

Tested on: BMNCs
Test: Histochemistry (Wright-Giemsa) and immunocytochemistry for erythroid cells (TER-119)
Assay type: cell-based, mouse
Conditions: 7 days culture, Wright-Giemsa staining
Description: In order to investigate whether QGR can stimulate the differentiation of hematopoietic stem cells into erythroid cells, the morphology of cells was observed and immunocytochemistry against TER-119, the marker of erythroid progenitors, was carried out. BMNCs were harvested 7 days after incubation with either rEpo (3 units/ml) or QGR (100 or 200 μM/ml) washed with PBS, re-suspended at a concentration of 2×10^5 cells/ml in PBS and subjected (100 μl/slide) to cytospin for 5 min at 1,000 rpm (Cytospin3; Shandon, ThermoElectron, Waltham, Mass., USA). All slides were fixed using cold methanol. Wright-Giemsa stain was performed for morphologic analysis. Immunocytochemistry against TER-119 was carried out for cellular lineage with 100-fold dilution according to the manufacturer's instruction using avidin biotinylated enzyme complex kit (VECTASTAIN, Vector Laboratories and Burlingame, Calif., USA).

B1: positive control group: mouse recombinant Epo (rEpo, 3 units/ml), positive control in the erythroid differentiation tests (protein, UniProt P07321 27-192, looked up)
Erythropoietin: APPRLICDSRVLERYILEAKEAENVTMGCAEGPRLSENITVPDTKVNFYAWKRMEVEEQAIEVWQGLSLLSEAILQAQALLANSSQPPETLQLHIDKAISGLRSLTSLLRVLGAQKELMSPPDTTPPAPLRTLTVDTFCKLFRVYANFLRGKLKLYTGEVCRRGDR
number of enucleated erythroid cells: increased
